From publication PMC2176068, “Hepatoma derived growth factor binds DNA through the N-terminal PWWP domain” come the findings set out here.

The target of data set [1] is T1, GST-HDGF (Homo sapiens, UniProt P51858 1-240). Nature of the data set: competition; 100x unlabeled, labeled 80 bp probe; 10 mM Tris pH 7.5, 50 mM KCl, 1 mM DTT, 5% glycerol, 0.05% NP-40, 0.1 ug sheared salmon sperm DNA; 1 ug protein, 0.25 pmol probe, 30 min on ice; 5% PAGE in 0.1x TBE. The note with it: protein: recombinant, tags: N-terminal GST (pGEX-4T2).
The target of data set [2] is GST-HDGF Δ1-140 (Homo sapiens, UniProt P51858 1-140). Nature of the data set: EMSA; 10 mM Tris pH 7.5, 50 mM KCl, 1 mM DTT, 5% glycerol, 0.05% NP-40, 0.1 ug sheared salmon sperm DNA; 1 ug protein, 0.25 pmol probe, 30 min on ice; 5% PAGE in 0.1x TBE. The note with it: protein: recombinant; tags: N-terminal GST; label: 5' biotin (sense strand); blunt. A general note: Mobility shift assays separate free from complexed probe on a gel.

For data set [3], the target named is GST-HDGF Δ70-237 (Homo sapiens, UniProt P51858 70-237). The description is as above. The note with it: protein: recombinant; tags: N-terminal GST; label: 5' biotin (sense strand); blunt.
Data set [4] has as its target TNT-HDGF (untagged) (UniProt P51858 1-240). The description is as above. The note with it: protein: ivt; tags: none; label: 5' biotin (sense strand); blunt.
In data set [5] the target is T1, GST-HDGF. Described as above. The note with it: protein: recombinant, tags: N-terminal GST (pGEX-4T2), blunt.
For data set [6], the target named is GST-HDGF Δ1-146 (Homo sapiens, UniProt P51858 1-146). The description is as above. The note with it: protein: recombinant; tags: N-terminal GST; label: 5' biotin (sense strand); blunt.
For data set [7], the target named is GST-HDGF Δ1-110 (Homo sapiens, UniProt P51858 1-110). Described as above. The note with it: protein: recombinant; tags: N-terminal GST; label: 5' biotin (sense strand); blunt.
The target of data set [8] is His-HDGF-GFP (UniProt P51858 1-240). Described as above. The note with it: protein: recombinant; tags: His, GFP; label: 5' biotin (sense strand); blunt.
Sequence of His-HDGF-GFP (P51858 whole entry): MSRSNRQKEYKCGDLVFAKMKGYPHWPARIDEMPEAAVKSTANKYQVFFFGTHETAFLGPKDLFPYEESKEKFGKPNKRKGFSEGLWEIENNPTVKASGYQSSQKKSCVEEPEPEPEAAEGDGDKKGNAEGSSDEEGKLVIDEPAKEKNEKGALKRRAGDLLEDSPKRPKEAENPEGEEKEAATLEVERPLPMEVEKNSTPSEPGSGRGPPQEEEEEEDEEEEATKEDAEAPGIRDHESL

T1 sequence (P51858 whole entry): as above
Sequence of GST-HDGF Δ1-146 (P51858 1-146, stated change not applied): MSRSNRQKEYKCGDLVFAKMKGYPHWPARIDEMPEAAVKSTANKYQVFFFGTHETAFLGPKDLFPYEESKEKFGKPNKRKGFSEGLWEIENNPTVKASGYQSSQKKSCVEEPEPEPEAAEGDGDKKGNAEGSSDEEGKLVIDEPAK
Sequence of TNT-HDGF (untagged) (P51858 whole entry): as the sequence (P51858 whole entry) above
Sequence of GST-HDGF Δ1-140 (P51858 1-140, stated change not applied): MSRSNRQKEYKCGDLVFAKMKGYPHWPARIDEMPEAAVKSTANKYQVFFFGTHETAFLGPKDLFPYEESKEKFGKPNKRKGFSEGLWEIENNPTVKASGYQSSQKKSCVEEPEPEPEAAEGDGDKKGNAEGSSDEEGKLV
Sequence of GST-HDGF Δ1-110 (P51858 1-110, stated change not applied): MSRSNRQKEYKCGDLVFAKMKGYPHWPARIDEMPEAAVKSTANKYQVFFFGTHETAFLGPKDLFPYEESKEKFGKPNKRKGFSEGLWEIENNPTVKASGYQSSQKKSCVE
Sequence of GST-HDGF Δ70-237 (P51858 70-237, stated change not applied): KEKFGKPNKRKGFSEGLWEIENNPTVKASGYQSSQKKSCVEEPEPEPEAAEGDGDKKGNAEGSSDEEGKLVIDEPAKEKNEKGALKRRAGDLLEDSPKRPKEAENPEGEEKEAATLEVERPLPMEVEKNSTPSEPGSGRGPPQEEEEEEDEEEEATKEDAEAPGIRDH

B1: non-specific competitor (dsDNA)
DNA 1: TGCTGTTGACAGTGAGCGCGGCCAGCTTATAGTCATATATTAGTGAAGCCACAGATGTAATATATGACTATAAGCTGGCCTTGCCTACTGCCTCGGA
DNA 2: TCCGAGGCAGTAGGCAAGGCCAGCTTATAGTCATATATTACATCTGTGGCTTCACTAATATATGACTATAAGCTGGCCGCGCTCACTGTCAACAGCA
On to B1, for which, in data set [1], the binding result is on record as “no binding”.

B2: SMYD1 promoter 80 bp probe (dsDNA)
DNA 1: CAGGCTGGTCTTGAACTCCTGACCTCAGATGATCCATGTGCCTCGGCCTCCCAAGGTGGGGATTACAGGCGTGAGCCACC
DNA 2: GGTGGCTCACGCCTGTAATCCCCACCTTGGGAGGCCGAGGCACATGGATCATCTGAGGTCAGGAGTTCAAGACCAGCCTG
For B2, the binding result is reported as “binds” in data set [2]; “no binding” in data set [3]; “binds” in data set [4]; “binds” in data set [5] (label: 5' biotin (sense strand)); “binds” in data set [6]; “binds” in data set [7]. The binding result in data set [8] is “binds”.

B3: 80 bp specific competitor (unlabeled) (dsDNA)
DNA 1: CAGGCTGGTCTTGAACTCCTGACCTCAGATGATCCATGTGCCTCGGCCTCCCAAGGTGGGGATTACAGGCGTGAGCCACC
DNA 2: GGTGGCTCACGCCTGTAATCCCCACCTTGGGAGGCCGAGGCACATGGATCATCTGAGGTCAGGAGTTCAAGACCAGCCTG
Consider B3, for which the binding result in data set [1] (blunt) was “binds”.

B4: 37 bp minimal probe (dsDNA)
DNA 1: CTTGAACTCCTGACCTCAGATGATCCATGTGCCTCGG
DNA 2: CCGAGGCACATGGATCATCTGAGGTCAGGAGTTCAAG
As to B4, the binding result in data set [5] (label: 5' biotin) is listed as “binds”.
